The results in this text go back to patent publication US20140087995A1 (published 2014).

Numbered stars: 1 amine (or outer) side, 2 acyl side, 3 side chain; on linkers, the order of the positions; unused ones are H or OH. Bridge positions count the residues as written; N and C are the ends. Side chains are listed from the residue outwards. Ends that are not written are not given here. * marks the point of attachment. C20 diacid = O=C(O)CCCCCCCCCCCCCCCCCCC(=O)*; γGlu = O=C(O)[C@H](CCC(=O)[*:2])N[*:1]

Assay [1] addresses T1, human amylin receptor (amylin 3(a) receptor: human calcitonin receptor plus RAMP-3) (human, UniProt P30988 25-474; O60896 24-148).
T1 construct: whole, on cells; functional assay (II)a used the whole cells; also called hAmylin-R; hAmylinR
T1 sequence (looked up) 1: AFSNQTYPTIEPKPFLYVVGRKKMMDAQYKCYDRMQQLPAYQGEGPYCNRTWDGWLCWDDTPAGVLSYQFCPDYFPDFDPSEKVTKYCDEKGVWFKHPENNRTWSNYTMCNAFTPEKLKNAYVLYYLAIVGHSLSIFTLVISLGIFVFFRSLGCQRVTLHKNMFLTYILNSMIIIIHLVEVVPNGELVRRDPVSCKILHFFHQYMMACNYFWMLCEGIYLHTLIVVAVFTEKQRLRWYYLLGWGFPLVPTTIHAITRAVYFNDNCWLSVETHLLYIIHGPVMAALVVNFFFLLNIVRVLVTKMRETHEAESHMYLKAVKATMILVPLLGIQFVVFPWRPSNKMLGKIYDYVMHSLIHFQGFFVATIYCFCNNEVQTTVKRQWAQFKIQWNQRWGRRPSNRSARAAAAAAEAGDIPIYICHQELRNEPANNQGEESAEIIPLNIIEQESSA
T1 sequence (looked up) 2: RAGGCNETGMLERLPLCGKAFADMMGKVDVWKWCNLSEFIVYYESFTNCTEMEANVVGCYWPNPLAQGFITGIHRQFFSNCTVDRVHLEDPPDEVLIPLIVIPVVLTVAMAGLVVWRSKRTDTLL
The assay is described as follows: SPA competition binding, displacement of 125I-rat amylin, membranes of BHK amylin 3(a)/CRE-luc cells. Summed up: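 Membranes from BHK Amylin 3(a)/CRE-luc cells (35 ng/μL final) were mixed with SPA beads and test compounds in 50 mM Hepes pH 7.4 with 1 mM CaCl2, 5 mM MgCl₂, 0.1% OA and 0.02% Tween20. Incubation ran 120 min at 25° C with shaking; IC₅₀ came from one-site competition fitting.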

The target in assay [2] is T2, human calcitonin receptor (human, UniProt P30988 25-474).
T2 sequence (looked up): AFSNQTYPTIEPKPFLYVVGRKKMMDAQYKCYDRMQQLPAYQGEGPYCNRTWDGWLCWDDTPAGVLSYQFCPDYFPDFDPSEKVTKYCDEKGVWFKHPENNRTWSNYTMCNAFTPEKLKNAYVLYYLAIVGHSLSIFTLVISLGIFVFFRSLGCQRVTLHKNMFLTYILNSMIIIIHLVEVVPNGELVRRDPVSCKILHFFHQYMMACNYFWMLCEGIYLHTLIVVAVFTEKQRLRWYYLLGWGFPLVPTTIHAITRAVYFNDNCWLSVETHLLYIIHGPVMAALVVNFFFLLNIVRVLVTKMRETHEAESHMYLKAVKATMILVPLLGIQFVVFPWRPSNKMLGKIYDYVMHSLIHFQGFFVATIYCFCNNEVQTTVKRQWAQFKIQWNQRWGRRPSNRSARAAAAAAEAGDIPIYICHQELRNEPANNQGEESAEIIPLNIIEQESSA
In words: cell-based or functional assay.

Assay [3] has as its target T1, human amylin receptor (amylin 3(a) …). In words: cell-based or functional assay.

B1: N^ε1-[(4S)-4-carboxy-4-(19-carboxynonadecanoylamino)butanoyl]-[His14,Arg17,Pro21,Pro27,His35]-h-amylin (peptide)
peptide: K([γGlu-C20 diacid])CNTATCATQRLAHFLRHSSPNFGAIPSSTNVGSHTY-NH2
modifications: disulfide 2-7; N-terminus assumed
SMILES: CC[C@H](C)[C@H](NC(=O)[C@H](C)NC(=O)CNC(=O)[C@H](Cc1ccccc1)NC(=O)[C@H](CC(N)=O)NC(=O)[C@@H]1CCCN1C(=O)[C@H](CO)NC(=O)[C@H](CO)NC(=O)[C@H](Cc1c[nH]cn1)NC(=O)[C@H](CCCNC(=N)N)NC(=O)[C@H](CC(C)C)NC(=O)[C@H](Cc1ccccc1)NC(=O)[C@H](Cc1c[nH]cn1)NC(=O)[C@H](C)NC(=O)[C@H](CC(C)C)NC(=O)[C@H](CCCNC(=N)N)NC(=O)[C@H](CCC(N)=O)NC(=O)[C@@H](NC(=O)[C@H](C)NC(=O)[C@@H]1CSSC[C@H](NC(=O)[C@@H](N)CCCCNC(=O)CC[C@H](NC(=O)CCCCCCCCCCCCCCCCCCC(=O)O)C(=O)O)C(=O)N[C@@H](CC(N)=O)C(=O)N[C@@H]([C@@H](C)O)C(=O)N[C@@H](C)C(=O)N[C@@H]([C@@H](C)O)C(=O)N1)[C@@H](C)O)C(=O)N1CCC[C@H]1C(=O)N[C@@H](CO)C(=O)N[C@@H](CO)C(=O)N[C@H](C(=O)N[C@@H](CC(N)=O)C(=O)N[C@H](C(=O)NCC(=O)N[C@@H](CO)C(=O)N[C@@H](Cc1c[nH]cn1)C(=O)N[C@H](C(=O)N[C@@H](Cc1ccc(O)cc1)C(N)=O)[C@@H](C)O)C(C)C)[C@@H](C)O
notes: also called compound 66
Turning to B1, the IC50 in assay [1] came to 0.396 nM. In assay [2], the “hCTR funct. EC50 (pM)” value came to 542 pM. Besides, in assay [3], the “Ratio hCT/hAmylin funct.” value was 20.1 and the “hAmylin-R funct. EC50 (pM)” value stood at 27 pM.

B2: N^ε1-[(4S)-4-carboxy-4-[[(4S)-4-carboxy-4-(19-carboxynonadecanoylamino)butanoyl]amino]butanoyl]-[Glu14,Arg17,Pro21,Pro27,Pro34,Glu35,Pro37]-h-amylin (peptide)
peptide: K([γGlu-γGlu-C20 diacid])CNTATCATQRLAEFLRHSSPNFGAIPSSTNVGPETP-NH2
modifications: disulfide 2-7; N-terminus assumed
SMILES: CC[C@H](C)[C@H](NC(=O)[C@H](C)NC(=O)CNC(=O)[C@H](Cc1ccccc1)NC(=O)[C@H](CC(N)=O)NC(=O)[C@@H]1CCCN1C(=O)[C@H](CO)NC(=O)[C@H](CO)NC(=O)[C@H](Cc1c[nH]cn1)NC(=O)[C@H](CCCNC(=N)N)NC(=O)[C@H](CC(C)C)NC(=O)[C@H](Cc1ccccc1)NC(=O)[C@H](CCC(=O)O)NC(=O)[C@H](C)NC(=O)[C@H](CC(C)C)NC(=O)[C@H](CCCNC(=N)N)NC(=O)[C@H](CCC(N)=O)NC(=O)[C@@H](NC(=O)[C@H](C)NC(=O)[C@@H]1CSSC[C@H](NC(=O)[C@@H](N)CCCCNC(=O)CC[C@H](NC(=O)CC[C@H](NC(=O)CCCCCCCCCCCCCCCCCCC(=O)O)C(=O)O)C(=O)O)C(=O)N[C@@H](CC(N)=O)C(=O)N[C@@H]([C@@H](C)O)C(=O)N[C@@H](C)C(=O)N[C@@H]([C@@H](C)O)C(=O)N1)[C@@H](C)O)C(=O)N1CCC[C@H]1C(=O)N[C@@H](CO)C(=O)N[C@@H](CO)C(=O)N[C@H](C(=O)N[C@@H](CC(N)=O)C(=O)N[C@H](C(=O)NCC(=O)N1CCC[C@H]1C(=O)N[C@@H](CCC(=O)O)C(=O)N[C@H](C(=O)N1CCC[C@H]1C(N)=O)[C@@H](C)O)C(C)C)[C@@H](C)O
B2: the IC50 in assay [1] stood at 0.533 nM. In addition, the “hCTR funct. EC50 (pM)” value in assay [2] was 102 pM. Also, in assay [3], the “Ratio hCT/hAmylin funct.” value was found to be 0.8 and the “hAmylin-R funct. EC50 (pM)” value is 132 pM.

B3: N^ε1-[(4S)-4-carboxy-4-[[(4S)-4-carboxy-4-(19-carboxynonadecanoylamino)butanoyl]amino]butanoyl]-[Glu14,Arg17,Pro21,Pro27,His34,Glu35]-h-amylin (peptide)
peptide: K([γGlu-γGlu-C20 diacid])CNTATCATQRLAEFLRHSSPNFGAIPSSTNVGHETY-NH2
modifications: disulfide 2-7; N-terminus assumed
SMILES: CC[C@H](C)[C@H](NC(=O)[C@H](C)NC(=O)CNC(=O)[C@H](Cc1ccccc1)NC(=O)[C@H](CC(N)=O)NC(=O)[C@@H]1CCCN1C(=O)[C@H](CO)NC(=O)[C@H](CO)NC(=O)[C@H](Cc1c[nH]cn1)NC(=O)[C@H](CCCNC(=N)N)NC(=O)[C@H](CC(C)C)NC(=O)[C@H](Cc1ccccc1)NC(=O)[C@H](CCC(=O)O)NC(=O)[C@H](C)NC(=O)[C@H](CC(C)C)NC(=O)[C@H](CCCNC(=N)N)NC(=O)[C@H](CCC(N)=O)NC(=O)[C@@H](NC(=O)[C@H](C)NC(=O)[C@@H]1CSSC[C@H](NC(=O)[C@@H](N)CCCCNC(=O)CC[C@H](NC(=O)CC[C@H](NC(=O)CCCCCCCCCCCCCCCCCCC(=O)O)C(=O)O)C(=O)O)C(=O)N[C@@H](CC(N)=O)C(=O)N[C@@H]([C@@H](C)O)C(=O)N[C@@H](C)C(=O)N[C@@H]([C@@H](C)O)C(=O)N1)[C@@H](C)O)C(=O)N1CCC[C@H]1C(=O)N[C@@H](CO)C(=O)N[C@@H](CO)C(=O)N[C@H](C(=O)N[C@@H](CC(N)=O)C(=O)N[C@H](C(=O)NCC(=O)N[C@@H](Cc1c[nH]cn1)C(=O)N[C@@H](CCC(=O)O)C(=O)N[C@H](C(=O)N[C@@H](Cc1ccc(O)cc1)C(N)=O)[C@@H](C)O)C(C)C)[C@@H](C)O
For the molecule B3, in assay [1], the IC50 came out at 0.525 nM. The “hCTR funct. EC50 (pM)” value in assay [2] amounted to 7050 pM. The “hAmylin-R funct. EC50 (pM)” value in assay [3] was determined as 445 pM.
Consider K([γGlu-γGlu-C20 diacid])CNTATCATQRLADFLRHSSPNFGAIPSSTNVGPETY-NH2 (disulfide 2-7), for which the IC50 in assay [1] came to 0.172 nM. Further, in assay [2], the “hCTR funct. EC50 (pM)” value worked out at 843 pM. Besides, in assay [3], the “Ratio hCT/hAmylin funct.” value is 5.3 and the “hAmylin-R funct. EC50 (pM)” value stood at 159 pM.

B4: N^ε1-[(4S)-4-carboxy-4-[[(4S)-4-carboxy-4-(19-carboxynonadecanoylamino)butanoyl]amino]butanoyl]-[Glu14,Arg17,Pro21,Pro27,Arg34,Glu35]-h-amylin (peptide)
peptide: K([γGlu-γGlu-C20 diacid])CNTATCATQRLAEFLRHSSPNFGAIPSSTNVGRETY-NH2
modifications: disulfide 2-7; N-terminus assumed
SMILES: CC[C@H](C)[C@H](NC(=O)[C@H](C)NC(=O)CNC(=O)[C@H](Cc1ccccc1)NC(=O)[C@H](CC(N)=O)NC(=O)[C@@H]1CCCN1C(=O)[C@H](CO)NC(=O)[C@H](CO)NC(=O)[C@H](Cc1c[nH]cn1)NC(=O)[C@H](CCCNC(=N)N)NC(=O)[C@H](CC(C)C)NC(=O)[C@H](Cc1ccccc1)NC(=O)[C@H](CCC(=O)O)NC(=O)[C@H](C)NC(=O)[C@H](CC(C)C)NC(=O)[C@H](CCCNC(=N)N)NC(=O)[C@H](CCC(N)=O)NC(=O)[C@@H](NC(=O)[C@H](C)NC(=O)[C@@H]1CSSC[C@H](NC(=O)[C@@H](N)CCCCNC(=O)CC[C@H](NC(=O)CC[C@H](NC(=O)CCCCCCCCCCCCCCCCCCC(=O)O)C(=O)O)C(=O)O)C(=O)N[C@@H](CC(N)=O)C(=O)N[C@@H]([C@@H](C)O)C(=O)N[C@@H](C)C(=O)N[C@@H]([C@@H](C)O)C(=O)N1)[C@@H](C)O)C(=O)N1CCC[C@H]1C(=O)N[C@@H](CO)C(=O)N[C@@H](CO)C(=O)N[C@H](C(=O)N[C@@H](CC(N)=O)C(=O)N[C@H](C(=O)NCC(=O)N[C@@H](CCCNC(=N)N)C(=O)N[C@@H](CCC(=O)O)C(=O)N[C@H](C(=O)N[C@@H](Cc1ccc(O)cc1)C(N)=O)[C@@H](C)O)C(C)C)[C@@H](C)O
For the molecule B4, the IC50 in assay [1] amounted to 0.957 nM. Further, the “hCTR funct. EC50 (pM)” value in assay [2] was 7430 pM. The “hAmylin-R funct. EC50 (pM)” value in assay [3] came out at 703 pM.
